Patent US20200131257A1 (YALE UNIVERSITY, published 2020)
Where “and” joins values, the source holds several entries; their conditions need not be identical. Equal entries are not always repeated. Where two headings read alike, the source gives them in different places. Values belong to the molecule of their own block, whether it stands above or below them. No end group written: not given here.

How the values were obtained:
[1] = target: extracellular domain of human β-Klotho (sKLB) (human) (UniProt Q86Z14); experiment: MST competition; GST-FGF21CT variant titrated into a constant sKLB/fl-FGF21 mixture
[2] = target: T1, extracellular domain of human β-Klotho (sKLB) (human, UniProt Q86Z14 53-983); experiment: quantitative binding studies, method not given
T1 construct: Made in HEK293-EBNA cells; also called WT sKLB; not shown: remnant of the TEV protease cleavage site / four-Gly linker left after the Fc tag was cut off
T1 sequence: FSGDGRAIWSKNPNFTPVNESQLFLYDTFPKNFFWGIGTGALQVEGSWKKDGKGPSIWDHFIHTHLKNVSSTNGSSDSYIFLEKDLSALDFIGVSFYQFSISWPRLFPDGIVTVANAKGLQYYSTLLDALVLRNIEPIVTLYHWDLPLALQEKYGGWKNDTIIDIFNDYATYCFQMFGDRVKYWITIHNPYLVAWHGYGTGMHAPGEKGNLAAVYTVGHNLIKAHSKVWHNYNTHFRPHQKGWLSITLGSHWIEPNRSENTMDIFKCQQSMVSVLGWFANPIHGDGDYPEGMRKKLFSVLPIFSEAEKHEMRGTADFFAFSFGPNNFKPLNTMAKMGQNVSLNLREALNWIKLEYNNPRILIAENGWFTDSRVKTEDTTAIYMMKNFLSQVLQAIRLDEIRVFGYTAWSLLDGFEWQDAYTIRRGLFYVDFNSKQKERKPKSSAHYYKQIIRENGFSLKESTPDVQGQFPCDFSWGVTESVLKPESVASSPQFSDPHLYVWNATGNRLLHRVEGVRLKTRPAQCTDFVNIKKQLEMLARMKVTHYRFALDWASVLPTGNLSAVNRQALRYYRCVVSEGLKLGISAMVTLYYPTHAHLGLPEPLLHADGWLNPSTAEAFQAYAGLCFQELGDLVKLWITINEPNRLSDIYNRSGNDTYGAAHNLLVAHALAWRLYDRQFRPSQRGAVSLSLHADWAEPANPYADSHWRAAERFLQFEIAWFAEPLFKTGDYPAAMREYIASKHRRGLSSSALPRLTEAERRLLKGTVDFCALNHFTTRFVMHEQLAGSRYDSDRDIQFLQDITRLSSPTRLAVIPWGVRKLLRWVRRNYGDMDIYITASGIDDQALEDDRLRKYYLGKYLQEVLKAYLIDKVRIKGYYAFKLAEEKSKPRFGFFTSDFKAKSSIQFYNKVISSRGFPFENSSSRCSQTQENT

[3] = target: T1, extracellular domain of human β-Klotho …; experiment: MST; 35 nM fluorescently labeled FGF21, sKLB titrated 0.03-1000 nM
Procedure: (§1) All MST measurements were performed using the Monolith NT.115Pico instrument (NanoTemper Technologies) with Monolith NT.115 MST Premium Coated Capillaries. Purified FGF21 was fluorescently labeled using the Monolith Protein Labeling Kit RED-NHS (NanoTemper Technologies) according to the instruction provided by the manufacturer. […] The thermophoretic movements of fl-FGF21 in each samples were monitored (LED 20%, IR laser 20%,) and the normalized fluorescence intensities (FNorm), defined as Fₕₒₜ/Fcold (where Fcold and Fₕₒₜ refer to the fluorescence intensities averaged over […] before IR laser is on and 29 s after IR laser is on, respectively), for each samples were plotted against the concentrations of sKLB. For the competition assays, the thermophoresis of fl-FGF21 was measured for samples where the concentration of fl-FGF21 and sKLB mixture was kept constant with the concentrations of GST-FGF21CT varying from 2.1 nM to 35000 nM. All the data were analyzed with the MO Affinity Analysis software (NanoTemper Technologies) provided by the manufacturer.
The affinity of FGF21 for sKLB was measured using MicroScale Thermophoresis or MST (Seidel et al., 2013, methods 59:301-315), where the thermophoretic movement of fluorescently-labeled FGF21 (fl-FGF21) in solution is monitored upon sKLB binding.

β-Klotho lacking D2 = target: T2, β-Klotho lacking D2 (human, UniProt Q86Z14 53-507); experiment: SPR and/or MST
T2 sequence: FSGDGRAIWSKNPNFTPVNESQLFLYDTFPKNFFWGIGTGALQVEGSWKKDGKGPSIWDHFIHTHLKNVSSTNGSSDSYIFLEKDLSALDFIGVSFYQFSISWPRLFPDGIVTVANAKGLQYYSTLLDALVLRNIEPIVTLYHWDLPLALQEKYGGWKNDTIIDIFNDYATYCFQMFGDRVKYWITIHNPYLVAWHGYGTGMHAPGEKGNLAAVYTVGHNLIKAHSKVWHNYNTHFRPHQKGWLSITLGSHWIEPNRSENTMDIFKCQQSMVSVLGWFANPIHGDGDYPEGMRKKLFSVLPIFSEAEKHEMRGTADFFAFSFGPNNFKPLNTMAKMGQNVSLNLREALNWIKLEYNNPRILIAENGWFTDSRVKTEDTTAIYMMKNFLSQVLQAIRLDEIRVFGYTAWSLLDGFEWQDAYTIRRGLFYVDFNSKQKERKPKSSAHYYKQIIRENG

[4] = target: T1, extracellular domain of human β-Klotho …; experiment: MST
Procedure: The thermophoretic movements of fl-FGF21 in each samples were monitored (LED 20%, IR laser 20%,) and the normalized fluorescence intensities (FNorm), defined as Fₕₒₜ/Fcold (where Fcold and Fₕₒₜ refer to the fluorescence intensities averaged over […] before IR laser is on and 29 s after IR laser is on, respectively), for each samples were plotted against the concentrations of sKLB. For the competition assays, the thermophoresis of fl-FGF21 was measured for samples where the concentration of fl-FGF21 and sKLB mixture was kept constant with the concentrations of GST-FGF21CT varying from 2.1 nM to 35000 nM. All the data were analyzed with the MO Affinity Analysis software (NanoTemper Technologies) provided by the manufacturer.
As endocrine FGFs play important roles in the control of metabolic processes, a variety of approaches have been utilized to develop novel therapeutics that retain (and exceed in potency) the beneficial stimulatory responses of FGF19 and or FGF21 while minimizing the side effects caused by these two hormones. […] In certain non-limiting embodiments, potency of FGF21 can be enhanced by introducing mutations into its C-terminal tail that strengthen interactions with β-Klotho. An L194F mutation was introduced to increase hydrophobic interactions with neighboring amino acids in site 1 of β-Klotho. […]

[5] = target: T3, full-length human β-Klotho (KLB), C-terminal HA-tagged, on L6 cells (human, UniProt Q86Z14 53-1044); experiment: cell-based or functional assay
T3 sequence: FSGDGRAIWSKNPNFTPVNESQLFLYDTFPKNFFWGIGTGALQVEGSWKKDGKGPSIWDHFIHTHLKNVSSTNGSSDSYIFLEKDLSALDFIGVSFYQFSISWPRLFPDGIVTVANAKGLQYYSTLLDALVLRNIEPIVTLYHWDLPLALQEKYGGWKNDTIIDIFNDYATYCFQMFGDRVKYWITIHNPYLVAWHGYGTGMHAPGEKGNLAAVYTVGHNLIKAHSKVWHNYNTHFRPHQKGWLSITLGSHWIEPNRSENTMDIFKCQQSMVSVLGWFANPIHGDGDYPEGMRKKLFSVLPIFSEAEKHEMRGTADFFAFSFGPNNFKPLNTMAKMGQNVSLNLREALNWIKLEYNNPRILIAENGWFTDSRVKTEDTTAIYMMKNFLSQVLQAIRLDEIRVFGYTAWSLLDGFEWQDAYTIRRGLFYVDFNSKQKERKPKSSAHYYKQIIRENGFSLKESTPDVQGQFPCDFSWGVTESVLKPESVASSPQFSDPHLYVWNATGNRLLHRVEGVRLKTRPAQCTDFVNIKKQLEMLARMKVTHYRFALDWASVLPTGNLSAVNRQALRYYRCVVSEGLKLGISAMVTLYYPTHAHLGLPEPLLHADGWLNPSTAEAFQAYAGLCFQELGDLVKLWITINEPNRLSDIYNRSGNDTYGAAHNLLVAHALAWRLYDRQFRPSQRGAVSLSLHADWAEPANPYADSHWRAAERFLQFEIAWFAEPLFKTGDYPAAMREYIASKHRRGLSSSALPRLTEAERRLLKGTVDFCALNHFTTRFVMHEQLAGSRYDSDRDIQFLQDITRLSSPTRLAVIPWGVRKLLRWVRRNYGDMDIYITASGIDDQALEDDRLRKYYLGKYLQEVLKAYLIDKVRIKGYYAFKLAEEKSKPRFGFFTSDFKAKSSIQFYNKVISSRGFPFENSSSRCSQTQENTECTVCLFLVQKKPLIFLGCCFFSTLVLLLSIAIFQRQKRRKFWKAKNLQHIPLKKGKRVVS

[6] = target: T1, extracellular domain of human β-Klotho …; experiment: SPR and/or MST
[7] = target: T1, extracellular domain of human β-Klotho …; experiment: MST competition: GST-FGF21CT titrated into a constant mixture of sKLB and fluorescently labelled FGF21 (competitor: fl-FGF21)
Procedure: as §1
(§2) To measure binding of the C-terminal fragment of FGF21 (FGF21CT) to sKLB, an MST-based competition assay was used, in which GST-fused FGF21CT (GST-FGF21CT) was titrated into a constant sKLB/fl-FGF21 mixture (FIG. 6C).

[8] = target: T1, extracellular domain of human β-Klotho …; experiment: as above; remark: listed apart in the source
Procedure: as §1, §2

[9] = target: T1, extracellular domain of human β-Klotho …; experiment: SPR; GST-FGF21CT immobilized on a sensor chip using anti-GST, sKLB in solution
[10] = target: T1, extracellular domain of human β-Klotho …; experiment: MST competition; GST-FGF21CT titrated into a constant sKLB/fl-FGF21 mixture
Procedure: as §1, §2

[11] = target: T1, extracellular domain of human β-Klotho …; experiment: MST; fluorescently labeled FGFR1cD2D3

IC50 [1]: 6630 nM
Molecule: GST-FGF21CT Y207A (from UniProt Q9NSA1 169-209)

IC50 [1]: 7160 nM
Molecule: GST-FGF21CT P193A (from UniProt Q9NSA1 169-209)

IC50 [1]: 5990 nM
Molecule: GST-FGF21CT S204A (from UniProt Q9NSA1 169-209)

IC50 [1]: 15900 nM
Molecule: GST-FGF21CT D192A (from UniProt Q9NSA1 169-209)

IC50 [1]: 5560 nM
Molecule: GST-FGF21CT S206A (from UniProt Q9NSA1 169-209)

Kd [2]: 43 nM
Molecule: LPEPPGILAPQPPDVGSSDPLSMVGGSQGRSPSYES (also called FGF21CT peptide) [FGF21CT synthetic peptide (C-terminal region of FGF21, residues 174-209 with P199G and A208E)]

Kd [3]: 43.5 nM | binding result (β-Klotho lacking D2): no binding
B1: recombinant human FGF21 (amino acids 29-209 with L126R, P199G and A208E, N-terminal His6 tag) (ligand)
chain: HPIPDSSPLLQFGGQVRQRYLYTDDAQQTEAHLEIREDGTVGGAADQSPESLLQLKALKPGVIQILGVKTSRFLCQRPDGALYGSLHFDPEACSFRERLLEDGYNVYQSEAHGLPLHLPGNKSPHRDPAPRGPARFLPLPGLPPALPEPPGILAPQPPDVGSSDPLSMVGGSQGRSPSYES
modifications: fluorescently labeled with Monolith Protein Labeling Kit RED-NHS (fl-FGF21) in the MST assays
notes: Expressed in E. coli; also called fl-FGF21; wild-type FGF21; not shown: N-terminal His6 tag from the pET28a vector

Kd [4]: 3.4 nM | fold tighter binding than wild-type FGF21 [4]: > 10 fold | stimulation of FGFR1c tyrosine phosphorylation in L6 cells coexpressing β-Klotho and FGFR1c [5]: ~10 fold
B2: R203W/L194F-mutated FGF21 (FGF21WF) (ligand)
chain: HPIPDSSPLLQFGGQVRQRYLYTDDAQQTEAHLEIREDGTVGGAADQSPESLLQLKALKPGVIQILGVKTSRFLCQRPDGALYGSLHFDPEACSFRELLLEDGYNVYQSEAHGLPLHLPGNKSPHRDPAPRGPARFLPLPGLPPALPEPPGILAPQPPDVGSSDPFSMVGPSQGWSPSYAS
notes: also called FGF21 carrying a double L194F/R203W mutations

binding result [6]: no binding
B3: FGF21 lacking the 10 C-terminal amino acids (ligand)
chain: HPIPDSSPLLQFGGQVRQRYLYTDDAQQTEAHLEIREDGTVGGAADQSPESLLQLKALKPGVIQILGVKTSRFLCQRPDGALYGSLHFDPEACSFRELLLEDGYNVYQSEAHGLPLHLPGNKSPHRDPAPRGPARFLPLPGLPPALPEPPGILAPQPPDVGSSDPLSMVGP

IC50 (read off the curve) [7]: ~700 nM | IC50 (read off the curve) [8]: ~700 nM | Kd [9]: 253 nM | IC50 [10]: 704 nM
B4: GST-fused FGF21CT (GST-FGF21CT), wild type (other)
chain: GLPPALPEPPGILAPQPPDVGSSDPLSMVGPSQGRSPSYAS
modifications: not fully specified (N-terminus); also: fused to GST tag, letters not given here
notes: also called WT; not shown: glutathione S-transferase tag and linker encoded by the pGEX-4T-1 vector (GE Healthcare)

Kd [11]: 940 nM and ~1000 nM
B5: FGFR1cD2D3 (ligand binding region of FGFR1c) (receptor, UniProt P11362 142-365, looked up)
chain: DNTKPNRMPVAPYWTSPEKMEKKLHAVPAAKTVKFKCPSSGTPNPTLRWLKNGKEFKPDHRIGGYKVRYATWSIIMDSVVPSDKGNYTCIVENEYGSINHTYQLDVVERSPHRPILQAGLPANKTVALGSNVEFMCKVYSDPQPHIQWLKHIEVNGSKIGPDNLPYVQILKTAGVNTTDKEMEVLHLRNVSFEDAGEYTCLAGNSIGLSHHSAWLTVLEALEER
modifications: fluorescently labeled in the MST assay
notes: domain: D2D3; the c splice form of FGFR1; also called FGFR1cD2D3 extracellular region
